Reference: patent publication US20050260177A1

Columns and labels:
[1] = molecular target: Ra12 protein (Mycobacterium tuberculosis); experiment: ELISA, Ra12 on plate, serum 1:128000, well 2
[2] = molecular target: Ra12 protein (Mycobacterium tuberculosis); experiment: ELISA, Ra12 on plate, serum 1:1024000, well 1
[3] = molecular target: Ra12 protein (Mycobacterium tuberculosis); experiment: ELISA, Ra12 on plate, serum 1:64000, average of 2 wells
[4] = molecular target: Ra12 protein (Mycobacterium tuberculosis); experiment: ELISA, Ra12 on plate, serum 1:64000, well 1
[5] = molecular target: Ra12 protein (Mycobacterium tuberculosis); experiment: ELISA, Ra12 on plate, serum 1:256000, well 2
[6] = molecular target: Ra12 protein (Mycobacterium tuberculosis); experiment: ELISA, Ra12 on plate, serum 1:512000, well 1
[7] = molecular target: Ra12 protein (Mycobacterium tuberculosis); experiment: ELISA, Ra12 on plate, serum 1:1000, average of 2 wells
[8] = molecular target: Ra12 protein (Mycobacterium tuberculosis); experiment: ELISA, Ra12 on plate, serum 1:1000, well 1
[9] = molecular target: Ra12 protein (Mycobacterium tuberculosis); experiment: ELISA, Ra12 on plate, serum 1:32000, well 1
[10] = molecular target: Ra12 protein (Mycobacterium tuberculosis); experiment: ELISA, Ra12 on plate, serum 1:16000, average of 2 wells
[11] = molecular target: Ra12 protein (Mycobacterium tuberculosis); experiment: ELISA, Ra12 on plate, serum 1:16000, well 1
[12] = molecular target: Ra12 protein (Mycobacterium tuberculosis); experiment: ELISA, Ra12 on plate, serum 1:1000, well 2
[13] = molecular target: Ra12 protein (Mycobacterium tuberculosis); experiment: ELISA, Ra12 on plate, serum 1:4000, average of 2 wells
[14] = molecular target: Ra12 protein (Mycobacterium tuberculosis); experiment: ELISA, Ra12 on plate, serum 1:512000, well 2
[15] = molecular target: Ra12 protein (Mycobacterium tuberculosis); experiment: ELISA, Ra12 on plate, serum 1:128000, well 1
[16] = molecular target: Ra12 protein (Mycobacterium tuberculosis); experiment: ELISA, Ra12 on plate, serum 1:256000, well 1
[17] = molecular target: Ra12 protein (Mycobacterium tuberculosis); experiment: ELISA, Ra12 on plate, serum 1:1024000, well 2
[18] = molecular target: Ra12 protein (Mycobacterium tuberculosis); experiment: ELISA, Ra12 on plate, serum 1:32000, average of 2 wells
[19] = molecular target: Ra12 protein (Mycobacterium tuberculosis); experiment: ELISA, Ra12 on plate, serum 1:512000, average of 2 wells
[20] = molecular target: Ra12 protein (Mycobacterium tuberculosis); experiment: ELISA, Ra12 on plate, serum 1:64000, well 2
[21] = molecular target: Ra12 protein (Mycobacterium tuberculosis); experiment: ELISA, Ra12 on plate, serum 1:256000, average of 2 wells
[22] = molecular target: Ra12 protein (Mycobacterium tuberculosis); experiment: ELISA, Ra12 on plate, serum 1:16000, well 2
[23] = molecular target: Ra12 protein (Mycobacterium tuberculosis); experiment: ELISA, Ra12 on plate, serum 1:8000, average of 2 wells
[24] = molecular target: Ra12 protein (Mycobacterium tuberculosis); experiment: ELISA, Ra12 on plate, serum 1:2000, average of 2 wells
[25] = molecular target: Ra12 protein (Mycobacterium tuberculosis); experiment: ELISA, Ra12 on plate, serum 1:128000, average of 2 wells
[26] = molecular target: Ra12 protein (Mycobacterium tuberculosis); experiment: ELISA, Ra12 on plate, serum 1:2000, well 1
[27] = molecular target: Ra12 protein (Mycobacterium tuberculosis); experiment: ELISA, Ra12 on plate, serum 1:8000, well 2
[28] = molecular target: Ra12 protein (Mycobacterium tuberculosis); experiment: ELISA, Ra12 on plate, serum 1:2000, well 2
[29] = molecular target: Ra12 protein (Mycobacterium tuberculosis); experiment: ELISA, Ra12 on plate, serum 1:4000, well 2
[30] = molecular target: Ra12 protein (Mycobacterium tuberculosis); experiment: ELISA, Ra12 on plate, serum 1:8000, well 1
[31] = molecular target: Ra12 protein (Mycobacterium tuberculosis); experiment: ELISA, Ra12 on plate, serum 1:4000, well 1
[32] = molecular target: Ra12 protein (Mycobacterium tuberculosis); experiment: ELISA, Ra12 on plate, serum 1:32000, well 2
[33] = molecular target: Ra12 protein (Mycobacterium tuberculosis); experiment: ELISA, Ra12 on plate, serum 1:1024000, average of 2 wells

**Q.** How did the ELISA absorbance at 450 nm [1] turn out when Preimmune sera (antibody) was run?
**A.** 0.14 OD450

**Q.** And the ELISA absorbance at 450 nm [2]?
**A.** 0.16 OD450

**Q.** And the ELISA absorbance at 450 nm [3]?
**A.** 0.13 OD450

**Q.** What about the ELISA absorbance at 450 nm [4] of the same substance?
**A.** 0.14 OD450

**Q.** What about the ELISA absorbance at 450 nm [5] of the same substance?
**A.** 0.15 OD450

**Q.** And the ELISA absorbance at 450 nm [6]?
**A.** 0.16 OD450

**Q.** And the ELISA absorbance at 450 nm [7]?
**A.** 0.18 OD450

**Q.** And the ELISA absorbance at 450 nm [8]?
**A.** 0.18 OD450

**Q.** What about the ELISA absorbance at 450 nm [9] of the same substance?
**A.** 0.14 OD450

**Q.** What about the ELISA absorbance at 450 nm [10] of the same substance?
**A.** 0.15 OD450

**Q.** And the ELISA absorbance at 450 nm [11]?
**A.** 0.15 OD450

**Q.** And the ELISA absorbance at 450 nm [12]?
**A.** 0.18 OD450

**Q.** What about the ELISA absorbance at 450 nm [13] of the same substance?
**A.** 0.15 OD450

**Q.** And the ELISA absorbance at 450 nm [14]?
**A.** 0.16 OD450

**Q.** And the ELISA absorbance at 450 nm [15]?
**A.** 0.15 OD450

**Q.** And the ELISA absorbance at 450 nm [16]?
**A.** 0.15 OD450

**Q.** And the ELISA absorbance at 450 nm [17]?
**A.** 0.16 OD450

**Q.** What about the ELISA absorbance at 450 nm [18] of the same substance?
**A.** 0.14 OD450

**Q.** What about the ELISA absorbance at 450 nm [19] of the same substance?
**A.** 0.16 OD450

**Q.** What about the ELISA absorbance at 450 nm [20] of the same substance?
**A.** 0.13 OD450

**Q.** And the ELISA absorbance at 450 nm [21]?
**A.** 0.15 OD450

**Q.** And the ELISA absorbance at 450 nm [22]?
**A.** 0.14 OD450

**Q.** What about the ELISA absorbance at 450 nm [23] of the same substance?
**A.** 0.15 OD450

**Q.** And the ELISA absorbance at 450 nm [24]?
**A.** 0.16 OD450

**Q.** What about the ELISA absorbance at 450 nm [25] of the same substance?
**A.** 0.14 OD450

**Q.** What about the ELISA absorbance at 450 nm [26] of the same substance?
**A.** 0.15 OD450

**Q.** What about the ELISA absorbance at 450 nm [27] of the same substance?
**A.** 0.15 OD450

**Q.** And the ELISA absorbance at 450 nm [28]?
**A.** 0.17 OD450

**Q.** What about the ELISA absorbance at 450 nm [29] of the same substance?
**A.** 0.15 OD450

**Q.** What about the ELISA absorbance at 450 nm [30] of the same substance?
**A.** 0.15 OD450

**Q.** What about the ELISA absorbance at 450 nm [31] of the same substance?
**A.** 0.15 OD450

**Q.** And the ELISA absorbance at 450 nm [32]?
**A.** 0.13 OD450

**Q.** What about the ELISA absorbance at 450 nm [33] of the same substance?
**A.** 0.16 OD450
